Assay results as given in patent publication US9974865B2, “Antibody drug conjugates (ADC) that bind to FLT3 proteins” (AGENSYS, INC., priority 2015, dated 2018).

Columns and labels:
Raji cells = test: ADCC assay (CytoTox 96, LDH release), positive control cell line; type: cell-based, human; settings: E:T=100:1, 2.5 ug/mL, 4 hours
EOL-1 cells = test: EOL-1 growth with human FLT3 ligand and antibody (Cell Titer Glo, 5 days); type: cell-based
Experimental: The ability of FLT3 antibodies (CHv62.21 and v62-1b37.1) to mediate the effect of human FLT3 ligand was evaluated using the human leukemia EOL-1 cell line, which endogenously expresses FLT3. Isotype control antibody (mLys-1c3.1) was also used. […] The next day, cells were treated with 50, 10 or 5 ng/mL of human FLT3 ligand (in 25 μl of complete media) and 10, 1, 0.1 and 0 μg/mL of test antibody (in 25 μl of complete media). Media alone was used as the untreated control. […] At the end of the incubation period, 100 μl of Cell Titer Glo was added to each well and incubated for 30 minutes, shaking, at room temperature.

cell surface FLT3 = cell surface FLT3 (Homo sapiens, UniProt P36888); test: Binding to cell surface FLT3 by flow cytometry
Description: To express CHv62.21 MAb recombinantly in transfected cells, v62.21 hybridoma MAb variable heavy and light chain sequences were cloned upstream of the human heavy chain IgG1 and human light chain Igκ constant regions respectively. The complete CHv62.21 MAb human heavy chain and light chain cassettes were cloned downstream of the CMV promoter/enhancer in a cloning vector. The recombinant CHv62.21 MAb expressing construct was transfected into CHO cells for stable expression in the Lonza GS system (Lonza, Basel, Switzerland). The CHv62.21 MAb secreted from recombinant CHO cells was purified and evaluated for binding to cell surface FLT3 by flow cytometry.
To express CHv62.21pAF recombinantly in transfected cells, v62-1b21 hybridoma MAb variable heavy and light chain sequences were cloned upstream of the human heavy chain IgG1 and human light chain Igκ constant regions respectively. The complete CHv62.21 MAb human heavy chain and light chain cassettes were cloned downstream of the CMV promoter/enhancer in a cloning vector. […] The CHv62.21pAF secreted from the stable subclone was purified and evaluated for binding to cell surface FLT3 by flow cytometry.

RS-4-11 cells = type: cell-based, human
Experimental: Briefly, The RS-4-11 cells were seeded in 50 μl of complete media at a density of 3000 cells per well onto 96 well plates and placed in a tissue culture incubator at 37° C.; 5% CO2. The next day, the ADCs were prepared in complete media at 10 μg/mL and serially diluted 1:5 for a total of 9 points. […] At the end of the incubation period, 20 μl of Presto Blue was added to each well and incubated for 2 hours. The plates were read using a BioTek Synergy H4 plate reader using 540 Excitation and 590 Emission wavelengths and graphed using Graphpad Prism software.

Question: With Rituximab as the molecule, how does the ADCC activity (Raji cells) read?
Answer: Its ADCC activity is “confirms ADCC activity”.

B1: Human FLT3 ligand: human FLT3 ligand purchased from R and D Systems (protein)
chain: TQDCSFQHSPISSDFAVKIRELSDYLLQDYPVTVASNLQDEELCGGLWRLVLAQRWMERLKTVAGSKMQGLLERVNTEIHFVTKCAFQPPPSCLRFVQTNISRLLQETSEQLVALKPWITRQNFSRCLELQCQPDSSTLPPPWSPRPLEATAPTAPQPP
Question: Which “effect on growth, FLT3 ligand alone” value (EOL-1 cells) does the source give for B1 here?
Answer: The value was “no effect on growth”.

B2: v62-1b21: hybridoma FLT3 MAb from VelocImmune mice, fully human variable regions and mouse constant regions (antibody, V domains shown)
VH: EVQLVESGGGLVRPGGSLRLSCAASGFTFSGYSINWVRQAPGKGLEWVSSISSSSNYIYYADSVKGRFTISRDNAKNSLYLQMNSLRAEDTAVYYCAREGFIAGTTFDAFDIWGQGTMVTVSS
VL: DIQMTQSPSSLSASVGDRVTITCRASQGIRNDLGWYQQKPGKAPKRLIYAASSLQSGVPSRFSGSGSGTEFTLTISSLQPEDFATYYCLQHNGFPYTFGQGTKLEIKR
Question: Which “binding to cell surface FLT3” value (cell surface FLT3) does the source give for B2 here?
Answer: The value was “specifically binds to Flt3 protein and Flt3 expressing cells”.

B3: v62-1b21.1-AGL-0129-08 (conjugate)
VH: EVQLVESGGGLVRPGGSLRLSCAASGFTFSGYSINWVRQAPGKGLEWVSSISSSSNYIYYADSVKGRFTISRDNAKNSLYLQMNSLRAEDTAVYYCAREGFIAGTTFDAFDIWGQGTMVTVSS
VL: DIQMTQSPSSLSASVGDRVTITCRASQGIRNDLGWYQQKPGKAPKRLIYAASSLQSGVPSRFSGSGSGTEFTLTISSLQPEDFATYYCLQHNGFPYTFGQGTKLEIKR
Question: B3 was tested. Which cytotoxicity (RS-4-11 cells) did it give?
Answer: The cytotoxicity was “can induce cytotoxicity”.
